Source: patent US20220202899A1, “COMPOSITION FOR PREVENTION OR TREATMENT OF HAIR LOSS INCLUDING HAPLN1” (HAPLNSCIENCE INC., priority 2019, published 2022)

B1: CX3CL1: protein expressed by a cell adhesion gene present in dermal papilla cells (protein, UniProt P78423 25-397, looked up)
Fractalkine: QHHGVTKCNITCSKMTSKIPVALLIHYQQNQASCGKRAIILETRQHRLFCADPKEQWVKDAMQHLDRQAAALTRNGGTFEKQIGEVKPRTTPAAGGMDESVVLEPEATGESSSLEPTPSSQEAQRALGTSPELPTGVTGSSGTRLPPTPKAQDGGPVGTELFRVPPVSTAATWQSSAPHQPGPSLWAEAKTSEAPSTQDPSTQASTASSPAPEENAPSEGQRVWGQGQSPRPENSLEREEMGPVPAHTDAFQDWGPGSMAHVSVVPVSSEGTPSREPVASGSWTPKAEEPIHATMDPQRLGVLITPVPDAQAATRRQAVGLLAFLGLLFCLGVAMFTYQSLQGCPRKMAGEMAEGLRYIPRSCGSNSYVLVPV
B2: CDON: protein expressed by a cell adhesion gene present in dermal papilla cells (protein, UniProt Q4KMG0 26-1287, looked up)
Cell adhesion …: DLAPYFTSEPLSAVQKLGGPVVLHCSAQPVTTRISWLHNGKTLDGNLEHVKIHQGTLTILSLNSSLLGYYQCLANNSIGAIVSGPATVSVAVLGDFGSSTKHVITAEEKSAGFIGCRVPESNPKAEVRYKIRGKWLEHSTENYLILPSGNLQILNVSLEDKGSYKCAAYNPVTHQLKVEPIGRKLLVSRPSSDDVHILHPTHSQALAVLSRSPVTLECVVSGVPAPQVYWLKDGQDIAPGSNWRRLYSHLATDSVDPADSGNYSCMAGNKSGDVKYVTYMVNVLEHASISKGLQDQIVSLGATVHFTCDVHGNPAPNCTWFHNAQPIHPSARHLTAGNGLKISGVTVEDVGMYQCVADNGIGFMHSTGRLEIENDGGFKPVIITAPVSAKVADGDFVTLSCNASGLPVPVIRWYDSHGLITSHPSQVLRSKSRKSQLSRPEGLNLEPVYFVLSQAGASSLHIQAVTQEHAGKYICEAANEHGTTQAEASLMVVPFETNTKAETVTLPDAAQNDDRSKRDGSETGLLSSFPVKVHPSAVESAPEKNASGISVPDAPIILSPPQTHTPDTYNLVWRAGKDGGLPINAYFVKYRKLDDGVGMLGSWHTVRVPGSENELHLAELEPSSLYEVLMVARSAAGEGQPAMLTFRTSKEKTASSKNTQASSPPVGIPKYPVVSEAANNNFGVVLTDSSRHSGVPEAPDRPTISTASETSVYVTWIPRANGGSPITAFKVEYKRMRTSNWLVAAEDIPPSKLSVEVRSLEPGSTYKFRVIAINHYGESFRSSASRPYQVVGFPNRFSSRPITGPHIAYTEAVSDTQIMLKWTYIPSSNNNTPIQGFYIYYRPTDSDNDSDYKRDVVEGSKQWHMIGHLQPETSYDIKMQCFNEGGESEFSNVMICETKVKRVPGASEYPVKDLSTPPNSLGSGGNVGPATSPARSSDMLYLIVGCVLGVMVLILMVFIAMCLWKNRQQNTIQKYDPPGYLYQGSDMNGQMVDYTTLSGASQINGNVHGGFLTNGGLSSGYSHLHHKVPNAVNGIVNGSLNGGLYSGHSNSLTRTHVDFEHPHHLVNGGGMYTAVPQIDPLECVNCRNCRNNNRCFTKTNSTFSSSPPPVVPVVAPYPQDGLEMKPLSHVKVPVCLTSAVPDCGQLPEESVKDNVEPVPTQRTCCQDIVNDVSSDGSEDPAEFSRGQEGMINLRIPDHLQLAKSCVWEGDSCAHSETEINIVSWNALILPPVPEGCAEKTMWSPPGIPLDSPTEVLQQPRET

How the values were obtained:
[1] = system: human dermal papilla cells; experiment: Dermal papilla cell proliferating effect, CCK-8 (Example 13); type: cell-based; conditions: proteins 25 ng/ml, minoxidil 10 μM; TGF-β2 (2 ng/ml) present or absent
Protocol: Human dermal papilla cells were cultured in a 37° C., 5% CO2 incubator using a dermal papilla cell proliferation medium (Promocell). When the cells were about 90% full, the cells were detached with a 0.05% Trypsin/EDTA solution and then centrifuged at 1000 rpm for 3 minutes to recover only the cells. The cells were dispensed into a 96-well plate at 2.0×10^3 per well, cultured for 24 hours, and HAPLN1, CX3CL1 and CDON were diluted to have a final concentration of 25 ng/ml in serum-free medium. After removing the existing culture medium, 200 μl of diluted HAPLN1, CX3CL1, and CDON were dispensed into each well and cultured for 1 hour. To reduce an experimental variation, 3 wells per group were treated (triplication). In addition, minoxidil, which is known to proliferate dermal papilla cells, was treated with 10 μM and set as a positive control.
(§1) In the same manner as described above, HAPLN1 (25 ng/ml), CX3CL1 (25 ng/ml), CDON (25 ng/ml) or minoxidil (10 μM), and human recombinant TGF-β2 were diluted to a final concentration of 2 ng/ml, and the medium of the group containing TGF-β2 was replaced by 200 μl. To reduce an experimental variation, 3 wells per group were treated (triplication).
(§2) After incubation for 23 hours, the plate was removed from the incubator, and 20 μl of CCK-8 (WST-8) solution was added to the plate containing the medium and the reagent per 200 μl of the medium for the reaction to be carried out at 37° C. for 1 hour.

[2] = system: human hair germinal matrix cells; experiment: Hair germinal matrix cell proliferating effect, CCK-8 (Example 13); type: cell-based; conditions: 25 ng/ml; TGF-β2 condition not given
Protocol: as §1, §2
Human hair germinal matrix cells were released in a poly-D-lysine-coated flask using a mesenchymal stem cell medium (MSCM), and cultured in a 5% CO2 incubator at 37° C. When the cells were about 90% full, the cells were detached with a 0.05% Trypsin/EDTA solution, and then only the cells were recovered by centrifugation at 1000 rpm for 3 minutes. The recovered cells were dispensed into 96-well poly-D-lysine coated plates (BD bioscience) at 2.0×10^3 per well and cultured for 24 hours, and the final concentrations of HAPLN1, CX3CL1 and CDON were diluted to 25 ng/ml in a serum-free medium. The subsequent process was performed in the same manner as the experiment for the dermal papilla cells to measure the absorbance, and the results are shown in FIG. 22.

Molecule | dermal papilla cell proliferation (absorbance at 450 nm) [1] | hair germinal matrix cell proliferation (absorbance at 450 nm) [2]
B1 | did not proliferate dermal papilla cells or rather inhibited proliferation thereof | inhibiting cell proliferation
B2 | did not proliferate dermal papilla cells or rather inhibited proliferation thereof | inhibiting cell proliferation
